Measurements from patent US20230331824A1 (ROCKEFELLER UNIVERSITY, published 2023).
Read-outs that look alike come from different tables or passages of the source.

Assays:
[1] = target: T1, recombinant SARS-CoV-2 spike S2-His (SARS-CoV-2, UniProt P0DTC2 686-1213); assay: pull-down on immobilized S2, band quantified
T1 construct: domain: S2

[2] = target: SARS-CoV-1 spike on pseudovirus (SARS-CoV-1, UniProt P59594 14-1255); assay: cell-based or functional assay
[3] = target: T2, recombinant SARS-CoV-2 spike RBD (untagged) (SARS-CoV-2, UniProt P0DTC2 319-541); assay: SPR
T2 construct: domain: RBD

SARS-CoV-2 spike protein [4] = target: T3, SARS-CoV-2 spike protein (SARS-CoV-2, UniProt P0DTC2 14-1273); assay: cell-based or functional assay
[5] = target: T4, recombinant SARS-CoV-2 spike S1-His (SARS-CoV-2, UniProt P0DTC2 16-685); assay: pull-down on immobilized S1, band quantified
T4 construct: domain: S1

[6] = target: T2, recombinant SARS-CoV-2 spike RBD …; assay: periplasm pull-down on immobilized S1-RBD, SDS-PAGE
SARS-CoV-2 spike protein [7] = target: T3, SARS-CoV-2 spike protein; assay: cell-based or functional assay; remark: listed apart in the source
[8] = target: T2, recombinant SARS-CoV-2 spike RBD …; assay: SPR; remark: listed apart in the source

B1: S2-49 (VHH)
VHH: DVQLVESGGGLVQPGGSLRLSCAVSGLTLPYFTISWFRQAPGKEREWVSSSRITGNTYYADSVKGRFTVSRDNAKSTVYLQMNRLKAEDTATYYCASGRNINYYTNSAEYNYWGRGTQVTVS
notes: also called S2 Nanobody # 49
B1: binds [1].

B2: S2-24 (VHH)
VHH: QVQLVESGGGLVQAGGSLRLSCAASGVTFSSHHMAWYRQTPGKQRELVATLASGGDTNYADSVKGRFTISRDNTKNTIYLQMNSLKPEDTAVYYCNARLWATGFRDYWGQGTQVTVS
notes: also called S2 Nanobody # 24
B2: binds [1].

B3: S2-45 (VHH)
VHH: QVQLVESGGGLVQAGGSLRLSCAASGLTFSSRAMAWFRQAPGKEREFVARISWSGRNTYYGDSVKGRFTISRDNAKNTVYLQMSSLEPEDTAVYRCAADQQYYNRYYNDEQGYAFWGQGTQVTVS
notes: also called S2 Nanobody # 45
B3: binds [1].

B4: S2-37 (VHH)
VHH: QVQVMESGGGLVQAGGSLRLSCAASTGILGGYDMRWYRQTPGNERELVASISSDGSTNYVDFVKGRFTISSDNAKNTVYLQMDSLKSEDTAVYYCNMRSTYYAIDYWGRGTQVTVS
notes: also called S2 Nanobody # 37
B4: binds [1].

B5: S1-3 (VHH)
VHH: QVQLVESGGGLVQAGGSLRLSCAASGSTFSNTGLGWYRQAPGKQREWVASISPSGSTSYLDSVRGRFIFSRDNAKNIAYLQMNSLKPEDTAVYYCNTLPRSGSWGQGTQVTVS
B5 was tested, and the “SARS-CoV-1 PSV neutralisation IC50” value [2] was 4160 nM.

B6: S2-20 (VHH)
VHH: QVQLVESGGGLVQPGGSLRLSCAASGFTLTYYTISWFRQAPGKEREWVSSSRISGNTYYTDSVKGRFTISRDNAKSVVYLQMNSLKPEDTATYYCASGRNIPYDTYTNPTKYDYWGRGTQVTVS
notes: also called S2 Nanobody # 20
B6: binds [1].

B7: S1-RBD-29 (VHH)
VHH: QVQLVESGGGLVQDGGSLRLSCAASGLASIVFNMGWFRQAPGKEREFVAGILGSGQSTYYGNSVKGRFTISRDSAKNTVYLQMNSLKPEDTAVYYCAAGGRLDLVNTTGGYEPTYWGQGTQVTVS
Work on B7 yielded a Kd [3] of 2.51 nM, a koff [3] of 0.00135 s⁻¹ and a kon [3] of 536000 M⁻¹ s⁻¹. For the same binder, the “PSV neutralisation IC50” value (SARS-CoV-2 spike protein [4]) was 9.53 nM.

B8: S2-30 (VHH)
VHH: QVQLVESGGGLVQAGGSLRLSCAASGSTFGNYAMGWYRQPPQAPGNQRDLVAFISTTGSTNYADSVKGRFTISRDNAKNTMYLQMNSLKPEDTAVYYCQAIERIVGYVSWGQGTQVTVS
notes: also called S2 Nanobody # 30
B8: binds [1].

B9: S2-34 (VHH)
VHH: QVQLVESGGGLVQTGGSLRLSCAASGITFNTYGMGWYRQAPGKQRELVAGIPSIGNINYARFVQGRFTVSRDDGKKAVYLQMNSLKPEDTAIYYCNLQTRFGTNYWGQGTQVTVS
notes: also called S2 Nanobody # 34
B9: binds [1].

B10: S1-18 (VHH)
VHH: QVRLVESGGGLVQPGGSLRLSCVVSGVSGSAFRFNRLGWYRQPPGKERELVASISSGGSTNYADSVKGRFTISRDNAKSTVSLQMNSLKPEDTAVYYCNIRADFFSSGRTGDWGQGTQVTVS
notes: also called S1 Nanobody # 18
B10: binds [5].

B11: S2-12 (VHH)
VHH: QVQLVESGGGLVQAGGSLRLSCVASEPTFSSRTMGWFRQAPGKERDFVAAMPWWKGALPNYKDSVKGRFTISIDSAKNTMYLQMNSLKPEDTAVYYCAASKTWSPRTEVATEHEFRGQGTQVTVS
notes: also called S2 Nanobody # 12
B11: binds [1].

B12: S1-RBD-40 (VHH)
VHH: QVQLVESGGGLVQAGGSLRLSCAASGITFSNYGMVWWRQAPGKQREFVASISSGRDTNYADFVKGRFTISRDNAKNTVHLQMNSLKPEDTAVYYCYTVTDRSDYWGQGTQVTVS
B12 gave a Kd [3] of 0.0371 nM, a koff [3] of 2.77e-05 s⁻¹ and a kon [3] of 747000 M⁻¹ s⁻¹. For the same binder, the “PSV neutralisation IC50” value (SARS-CoV-2 spike protein [4]) was 25.6 nM.

B13: S1-RBD-13 (VHH)
VHH: EVQLVESGGGLVQAGGSLRLSCAAPTLTLSSHTIGWFRQAPGKEREGVSYIPMTGLPIYCRDSVKGRFTISTDNAKNTVYLQMDSLKPEDTAVYYCAALLGVRSRMCPESVYTYWGQGTQVTVS
notes: also called S1-RBD Nanobody # 13
B13: binds [6].

B14: S2-29 (VHH)
VHH: QVQLVESGGGLVQPGGSLRLSCAASGRIFSSNAMGWYRQAPGKEREWVACISSGSSTNYADSVKGRFTISRDNAKNTVYLQMNSLKPEDTAVYYCISKEVGWCGREGPIGSWGQGTQVTVS
notes: also called S2 Nanobody # 29
B14: binds [1].

B15: S1-RBD-16 (VHH)
VHH: QVQLVESGGGLVQSGGSLRLSCVASGRGFDRYPMGWFRQAPGKEREFVGGINWNGANTYYADSVKGRFTISRDNTKNTVYLQMNSLKPEDTALYYCAADQHYMGSPPPKEYEYDYWGQGTQVTVS
For B15, the “PSV neutralisation IC50” value (SARS-CoV-2 spike protein [7]) was 79.2 nM, the Kd [8] was 3.73 nM and the koff [8] was 6.25e-05 s⁻¹. For the same binder, the kon [8] was 16800 M⁻¹ s⁻¹.

B16: S1-8 (VHH)
VHH: QVQLVESGGGLVQAGGSLRLSCAASGRVLSSYVMGWFRQAPGKEREFVAAIRWNGGSTFYADSVKGRLTISRDNAKNTVYLQMNSLKPEDTAAYYCAASPRTMYDATYYYSRTSYDYWGQGTQVTVS
notes: also called S1 Nanobody # 8
B16: binds [5].

B17: S1-1 (VHH)
VHH: QVQLVESGGGLVQAGGSLRLSCAASGMPFSSYAMGWFRQAPGKEREFVAAVNWNGISTYLADSVKGRFTASRDNAKNTAYLQMNSLKPEDTAVYYCAADSKGWSEWGMDYWGKGTLVTVS
With B17 the “SARS-CoV-1 PSV neutralisation IC50” value [2] was 8.62 nM.

B18: S2-23 (VHH)
VHH: QVQLVESGGGLVQPGGSLRLSCAASGRTFSSAMMGWFRQAPGKEREFVASIDWRYQYRYYADSVKGRFTISRDNAKNMVYLQMNSLKPEDTAVYYCACQIERSGIYHYEDSNKYQSWGQGTQVSVS
notes: also called S2 Nanobody # 23
B18: binds [1].

B19: S1-RBD-23 (VHH)
VHH: QVHLVESGGDLVQPGGSLRLSCVASGSGFENNAITWYRQAPGKERELVSGITSGGSTNYADSVKGRFTISRDNAKNTVYLEMNSLKPEDTAVYLCQAVAWDSRRRSVVAFWGQGTQVTVS
For B19, the “PSV neutralisation IC50” value (SARS-CoV-2 spike protein [7]) was 7.31 nM, the Kd [8] was 0.0159 nM and the koff [8] was 4.61e-05 s⁻¹. For the same binder, the kon [8] was 2.89e+06 M⁻¹ s⁻¹.

B20: S1-13 (VHH)
VHH: EVQLVESGGGLVQPGGSLKLSCAASGFTLDDYTIGWFRQAPGKEREGVSYISSSGSNSYYEDSVKGRFTISRDNAKSTVYLQMNSLKPEDTAVYYCAARRVWQQTIVVRGPVHYEYWGHGTQVTVS
notes: also called S1 Nanobody # 13
B20: binds [5].

B21: S2-44 (VHH)
VHH: QVQFVESGGGLVQPGGSLRLSCVGSEFTLDNYDIGWFRQAPGKEREWVSCITPRGNIINYADSVKGRFTISRDNAKNTAFLQMNSLKPEDTAVYYCARSSALYDCSQRQTRFFSSWGQGTQVTVS
notes: also called S2 Nanobody # 44
B21: binds [1].
